Assay results published in PMC6539025, “P-element Somatic Inhibitor Protein Binding a Target Sequence in dsx Pre-mRNA Conserved in Bombyx mori and Spodoptera litura”.

How the values were obtained:
[1] = target: SlPSI L127G (Spodoptera litura, UniProt A0A9J7DW37 1-732, L127G); test: competition; unlabeled CE1 against biotin-CE1; RNA dissolved in protein purification buffer, 20 mM Tris, 20 mM NaCl (pH not given); ITC at 25 C; EMSA buffer not given; details: protein: recombinant; tags: N-terminal His6-MBP-TEV
[2] = target: MBP-BmPSI (Bombyx mori, UniProt A8R081 1-703); test: ITC; 25 C; n = 1.02; RNA dissolved in protein purification buffer, 20 mM Tris, 20 mM NaCl (pH not given); ITC at 25 C; EMSA buffer not given; details: protein: recombinant; tags: N-terminal His6-MBP-TEV
MBP-BmPSI, sequence (A8R081 entry or part of it): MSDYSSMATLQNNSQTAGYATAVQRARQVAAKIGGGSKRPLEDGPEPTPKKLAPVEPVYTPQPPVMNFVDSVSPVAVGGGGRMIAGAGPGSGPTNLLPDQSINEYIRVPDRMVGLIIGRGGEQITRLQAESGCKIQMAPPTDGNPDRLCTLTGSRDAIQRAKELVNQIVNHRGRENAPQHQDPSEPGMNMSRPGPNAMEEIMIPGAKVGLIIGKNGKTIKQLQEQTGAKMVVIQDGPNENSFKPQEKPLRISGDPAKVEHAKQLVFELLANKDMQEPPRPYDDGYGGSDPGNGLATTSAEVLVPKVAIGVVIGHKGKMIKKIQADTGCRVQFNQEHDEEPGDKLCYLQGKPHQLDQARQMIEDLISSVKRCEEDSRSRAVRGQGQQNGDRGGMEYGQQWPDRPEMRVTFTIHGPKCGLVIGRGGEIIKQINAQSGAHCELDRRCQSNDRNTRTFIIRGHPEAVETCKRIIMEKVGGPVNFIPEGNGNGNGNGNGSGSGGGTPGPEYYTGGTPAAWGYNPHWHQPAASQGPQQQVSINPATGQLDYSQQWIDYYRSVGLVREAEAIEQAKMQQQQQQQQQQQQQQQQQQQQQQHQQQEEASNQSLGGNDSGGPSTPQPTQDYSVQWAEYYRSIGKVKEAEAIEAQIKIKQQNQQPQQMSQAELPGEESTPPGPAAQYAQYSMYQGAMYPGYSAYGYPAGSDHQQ

SlPSI L127G, sequence (A0A9J7DW37 entry or part of it L127G | L127G L127G): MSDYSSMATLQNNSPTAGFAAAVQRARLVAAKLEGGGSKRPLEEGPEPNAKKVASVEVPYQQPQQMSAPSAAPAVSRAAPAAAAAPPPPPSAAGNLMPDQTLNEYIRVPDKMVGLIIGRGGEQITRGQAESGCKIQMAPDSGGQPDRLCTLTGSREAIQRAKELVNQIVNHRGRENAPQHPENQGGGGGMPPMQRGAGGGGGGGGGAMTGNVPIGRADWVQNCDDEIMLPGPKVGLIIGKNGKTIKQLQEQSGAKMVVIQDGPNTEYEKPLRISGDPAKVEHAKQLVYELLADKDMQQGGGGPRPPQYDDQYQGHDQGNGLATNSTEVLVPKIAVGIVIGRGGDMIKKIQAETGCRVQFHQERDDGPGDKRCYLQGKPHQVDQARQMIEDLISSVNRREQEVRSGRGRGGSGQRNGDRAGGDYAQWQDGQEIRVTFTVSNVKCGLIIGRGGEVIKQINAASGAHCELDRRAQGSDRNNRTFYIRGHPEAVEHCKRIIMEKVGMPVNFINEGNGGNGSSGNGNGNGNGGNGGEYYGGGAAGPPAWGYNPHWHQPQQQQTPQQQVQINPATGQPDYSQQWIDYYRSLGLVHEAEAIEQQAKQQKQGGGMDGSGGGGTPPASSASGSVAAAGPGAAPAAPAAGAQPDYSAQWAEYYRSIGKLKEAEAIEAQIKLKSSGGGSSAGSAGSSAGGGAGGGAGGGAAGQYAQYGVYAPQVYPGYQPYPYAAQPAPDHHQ

For UUAAUAAUAUAAGUGGUGUA (ssRNA) [CE1 RNA, unlabeled], the binding result [1] was “binds” and the Ka [2] was 1.74e+07 M⁻¹.
